In US20140087995A1 (published 2014):
Numbered stars: 1 amine (or outer) side, 2 acyl side, 3 side chain; on linkers, the order of the positions; unused ones are H or OH. Bridge positions count the residues as written; N and C are the ends. Side chains are listed from the residue outwards. Ends that are not written are not given here. * marks the point of attachment. C20 diacid = O=C(O)CCCCCCCCCCCCCCCCCCC(=O)*; γGlu = O=C(O)[C@H](CCC(=O)[*:2])N[*:1]

B1: N^ε1-[(4S)-4-carboxy-4-(19-carboxynonadecanoylamino)butanoyl]-[Glu14,Arg17,Pro21,Pro27,Arg34,Glu35]-h-amylin (peptide)
peptide: K([γGlu-C20 diacid])CNTATCATQRLAEFLRHSSPNFGAIPSSTNVGRETY-NH2
modifications: disulfide 2-7; N-terminus assumed
SMILES: CC[C@H](C)[C@H](NC(=O)[C@H](C)NC(=O)CNC(=O)[C@H](Cc1ccccc1)NC(=O)[C@H](CC(N)=O)NC(=O)[C@@H]1CCCN1C(=O)[C@H](CO)NC(=O)[C@H](CO)NC(=O)[C@H](Cc1c[nH]cn1)NC(=O)[C@H](CCCNC(=N)N)NC(=O)[C@H](CC(C)C)NC(=O)[C@H](Cc1ccccc1)NC(=O)[C@H](CCC(=O)O)NC(=O)[C@H](C)NC(=O)[C@H](CC(C)C)NC(=O)[C@H](CCCNC(=N)N)NC(=O)[C@H](CCC(N)=O)NC(=O)[C@@H](NC(=O)[C@H](C)NC(=O)[C@@H]1CSSC[C@H](NC(=O)[C@@H](N)CCCCNC(=O)CC[C@H](NC(=O)CCCCCCCCCCCCCCCCCCC(=O)O)C(=O)O)C(=O)N[C@@H](CC(N)=O)C(=O)N[C@@H]([C@@H](C)O)C(=O)N[C@@H](C)C(=O)N[C@@H]([C@@H](C)O)C(=O)N1)[C@@H](C)O)C(=O)N1CCC[C@H]1C(=O)N[C@@H](CO)C(=O)N[C@@H](CO)C(=O)N[C@H](C(=O)N[C@@H](CC(N)=O)C(=O)N[C@H](C(=O)NCC(=O)N[C@@H](CCCNC(=N)N)C(=O)N[C@@H](CCC(=O)O)C(=O)N[C@H](C(=O)N[C@@H](Cc1ccc(O)cc1)C(N)=O)[C@@H](C)O)C(C)C)[C@@H](C)O
notes: also called 14E, 17R, 21P, 27P, 34R, 35E
B2: N^ε1-[(4S)-4-carboxy-4-(19-carboxynonadecanoylamino)butanoyl]-[Glu14,Arg17,Pro21,Pro27,Pro34,Pro37]-h-amylin (peptide)
peptide: K([γGlu-C20 diacid])CNTATCATQRLAEFLRHSSPNFGAIPSSTNVGPNTP-NH2
modifications: disulfide 2-7; N-terminus assumed
SMILES: CC[C@H](C)[C@H](NC(=O)[C@H](C)NC(=O)CNC(=O)[C@H](Cc1ccccc1)NC(=O)[C@H](CC(N)=O)NC(=O)[C@@H]1CCCN1C(=O)[C@H](CO)NC(=O)[C@H](CO)NC(=O)[C@H](Cc1c[nH]cn1)NC(=O)[C@H](CCCNC(=N)N)NC(=O)[C@H](CC(C)C)NC(=O)[C@H](Cc1ccccc1)NC(=O)[C@H](CCC(=O)O)NC(=O)[C@H](C)NC(=O)[C@H](CC(C)C)NC(=O)[C@H](CCCNC(=N)N)NC(=O)[C@H](CCC(N)=O)NC(=O)[C@@H](NC(=O)[C@H](C)NC(=O)[C@@H]1CSSC[C@H](NC(=O)[C@@H](N)CCCCNC(=O)CC[C@H](NC(=O)CCCCCCCCCCCCCCCCCCC(=O)O)C(=O)O)C(=O)N[C@@H](CC(N)=O)C(=O)N[C@@H]([C@@H](C)O)C(=O)N[C@@H](C)C(=O)N[C@@H]([C@@H](C)O)C(=O)N1)[C@@H](C)O)C(=O)N1CCC[C@H]1C(=O)N[C@@H](CO)C(=O)N[C@@H](CO)C(=O)N[C@H](C(=O)N[C@@H](CC(N)=O)C(=O)N[C@H](C(=O)NCC(=O)N1CCC[C@H]1C(=O)N[C@@H](CC(N)=O)C(=O)N[C@H](C(=O)N1CCC[C@H]1C(N)=O)[C@@H](C)O)C(C)C)[C@@H](C)O
notes: also called 14E, 17R, 21P, 27P, 34P, 37P
B3: N^ε1-[(4S)-4-carboxy-4-(19-carboxynonadecanoylamino)butanoyl]-[His14,Arg17,Pro21,Pro27,His34]-h-amylin (peptide)
peptide: K([γGlu-C20 diacid])CNTATCATQRLAHFLRHSSPNFGAIPSSTNVGHNTY-NH2
modifications: disulfide 2-7; N-terminus assumed
SMILES: CC[C@H](C)[C@H](NC(=O)[C@H](C)NC(=O)CNC(=O)[C@H](Cc1ccccc1)NC(=O)[C@H](CC(N)=O)NC(=O)[C@@H]1CCCN1C(=O)[C@H](CO)NC(=O)[C@H](CO)NC(=O)[C@H](Cc1c[nH]cn1)NC(=O)[C@H](CCCNC(=N)N)NC(=O)[C@H](CC(C)C)NC(=O)[C@H](Cc1ccccc1)NC(=O)[C@H](Cc1c[nH]cn1)NC(=O)[C@H](C)NC(=O)[C@H](CC(C)C)NC(=O)[C@H](CCCNC(=N)N)NC(=O)[C@H](CCC(N)=O)NC(=O)[C@@H](NC(=O)[C@H](C)NC(=O)[C@@H]1CSSC[C@H](NC(=O)[C@@H](N)CCCCNC(=O)CC[C@H](NC(=O)CCCCCCCCCCCCCCCCCCC(=O)O)C(=O)O)C(=O)N[C@@H](CC(N)=O)C(=O)N[C@@H]([C@@H](C)O)C(=O)N[C@@H](C)C(=O)N[C@@H]([C@@H](C)O)C(=O)N1)[C@@H](C)O)C(=O)N1CCC[C@H]1C(=O)N[C@@H](CO)C(=O)N[C@@H](CO)C(=O)N[C@H](C(=O)N[C@@H](CC(N)=O)C(=O)N[C@H](C(=O)NCC(=O)N[C@@H](Cc1c[nH]cn1)C(=O)N[C@@H](CC(N)=O)C(=O)N[C@H](C(=O)N[C@@H](Cc1ccc(O)cc1)C(N)=O)[C@@H](C)O)C(C)C)[C@@H](C)O
notes: also called 14H, 17R, 21P, 27P, 34H
B4: N^ε1-[(4S)-4-carboxy-4-(19-carboxynonadecanoylamino)butanoyl]-[Glu14,Arg17,Pro21,Pro27,His34,Glu35]-h-amylin (peptide)
peptide: K([γGlu-C20 diacid])CNTATCATQRLAEFLRHSSPNFGAIPSSTNVGHETY-NH2
modifications: disulfide 2-7; N-terminus assumed
SMILES: CC[C@H](C)[C@H](NC(=O)[C@H](C)NC(=O)CNC(=O)[C@H](Cc1ccccc1)NC(=O)[C@H](CC(N)=O)NC(=O)[C@@H]1CCCN1C(=O)[C@H](CO)NC(=O)[C@H](CO)NC(=O)[C@H](Cc1c[nH]cn1)NC(=O)[C@H](CCCNC(=N)N)NC(=O)[C@H](CC(C)C)NC(=O)[C@H](Cc1ccccc1)NC(=O)[C@H](CCC(=O)O)NC(=O)[C@H](C)NC(=O)[C@H](CC(C)C)NC(=O)[C@H](CCCNC(=N)N)NC(=O)[C@H](CCC(N)=O)NC(=O)[C@@H](NC(=O)[C@H](C)NC(=O)[C@@H]1CSSC[C@H](NC(=O)[C@@H](N)CCCCNC(=O)CC[C@H](NC(=O)CCCCCCCCCCCCCCCCCCC(=O)O)C(=O)O)C(=O)N[C@@H](CC(N)=O)C(=O)N[C@@H]([C@@H](C)O)C(=O)N[C@@H](C)C(=O)N[C@@H]([C@@H](C)O)C(=O)N1)[C@@H](C)O)C(=O)N1CCC[C@H]1C(=O)N[C@@H](CO)C(=O)N[C@@H](CO)C(=O)N[C@H](C(=O)N[C@@H](CC(N)=O)C(=O)N[C@H](C(=O)NCC(=O)N[C@@H](Cc1c[nH]cn1)C(=O)N[C@@H](CCC(=O)O)C(=O)N[C@H](C(=O)N[C@@H](Cc1ccc(O)cc1)C(N)=O)[C@@H](C)O)C(C)C)[C@@H](C)O
notes: also called 14E, 17R, 21P, 27P, 34H, 35E
B5: N^ε1-[(4S)-4-carboxy-4-(19-carboxynonadecanoylamino)butanoyl]-[Glu14,Arg17,Pro21,Pro27,Pro34,Glu35]-h-amylin (peptide)
peptide: K([γGlu-C20 diacid])CNTATCATQRLAEFLRHSSPNFGAIPSSTNVGPETY-NH2
modifications: disulfide 2-7; N-terminus assumed
SMILES: CC[C@H](C)[C@H](NC(=O)[C@H](C)NC(=O)CNC(=O)[C@H](Cc1ccccc1)NC(=O)[C@H](CC(N)=O)NC(=O)[C@@H]1CCCN1C(=O)[C@H](CO)NC(=O)[C@H](CO)NC(=O)[C@H](Cc1c[nH]cn1)NC(=O)[C@H](CCCNC(=N)N)NC(=O)[C@H](CC(C)C)NC(=O)[C@H](Cc1ccccc1)NC(=O)[C@H](CCC(=O)O)NC(=O)[C@H](C)NC(=O)[C@H](CC(C)C)NC(=O)[C@H](CCCNC(=N)N)NC(=O)[C@H](CCC(N)=O)NC(=O)[C@@H](NC(=O)[C@H](C)NC(=O)[C@@H]1CSSC[C@H](NC(=O)[C@@H](N)CCCCNC(=O)CC[C@H](NC(=O)CCCCCCCCCCCCCCCCCCC(=O)O)C(=O)O)C(=O)N[C@@H](CC(N)=O)C(=O)N[C@@H]([C@@H](C)O)C(=O)N[C@@H](C)C(=O)N[C@@H]([C@@H](C)O)C(=O)N1)[C@@H](C)O)C(=O)N1CCC[C@H]1C(=O)N[C@@H](CO)C(=O)N[C@@H](CO)C(=O)N[C@H](C(=O)N[C@@H](CC(N)=O)C(=O)N[C@H](C(=O)NCC(=O)N1CCC[C@H]1C(=O)N[C@@H](CCC(=O)O)C(=O)N[C@H](C(=O)N[C@@H](Cc1ccc(O)cc1)C(N)=O)[C@@H](C)O)C(C)C)[C@@H](C)O
notes: also called 14E, 17R, 21P, 27P, 34P, 35E
B6: N^ε1-[(4S)-4-carboxy-4-(19-carboxynonadecanoylamino)butanoyl]-[Glu14,Arg17,Pro21,Pro27,Pro34,Arg35]-h-amylin (peptide)
peptide: K([γGlu-C20 diacid])CNTATCATQRLAEFLRHSSPNFGAIPSSTNVGPRTY-NH2
modifications: disulfide 2-7; N-terminus assumed
SMILES: CC[C@H](C)[C@H](NC(=O)[C@H](C)NC(=O)CNC(=O)[C@H](Cc1ccccc1)NC(=O)[C@H](CC(N)=O)NC(=O)[C@@H]1CCCN1C(=O)[C@H](CO)NC(=O)[C@H](CO)NC(=O)[C@H](Cc1c[nH]cn1)NC(=O)[C@H](CCCNC(=N)N)NC(=O)[C@H](CC(C)C)NC(=O)[C@H](Cc1ccccc1)NC(=O)[C@H](CCC(=O)O)NC(=O)[C@H](C)NC(=O)[C@H](CC(C)C)NC(=O)[C@H](CCCNC(=N)N)NC(=O)[C@H](CCC(N)=O)NC(=O)[C@@H](NC(=O)[C@H](C)NC(=O)[C@@H]1CSSC[C@H](NC(=O)[C@@H](N)CCCCNC(=O)CC[C@H](NC(=O)CCCCCCCCCCCCCCCCCCC(=O)O)C(=O)O)C(=O)N[C@@H](CC(N)=O)C(=O)N[C@@H]([C@@H](C)O)C(=O)N[C@@H](C)C(=O)N[C@@H]([C@@H](C)O)C(=O)N1)[C@@H](C)O)C(=O)N1CCC[C@H]1C(=O)N[C@@H](CO)C(=O)N[C@@H](CO)C(=O)N[C@H](C(=O)N[C@@H](CC(N)=O)C(=O)N[C@H](C(=O)NCC(=O)N1CCC[C@H]1C(=O)N[C@@H](CCCNC(=N)N)C(=O)N[C@H](C(=O)N[C@@H](Cc1ccc(O)cc1)C(N)=O)[C@@H](C)O)C(C)C)[C@@H](C)O
notes: also called 14E, 17R, 21P, 27P, 34P, 35R
B7: N^ε1-[(4S)-4-carboxy-4-(19-carboxynonadecanoylamino)butanoyl]-[Glu14,Arg17,Pro21,Pro27,Pro34,His35]-h-amylin (peptide)
peptide: K([γGlu-C20 diacid])CNTATCATQRLAEFLRHSSPNFGAIPSSTNVGPHTY-NH2
modifications: disulfide 2-7
notes: also called 14E, 17R, 21P, 27P, 34P, 35H

What follows are binders tested against T1, human amylin receptor (human, UniProt P30988 25-474; O60896 24-148, limits assumed) (assay: SPA competition binding, displacement of 125I-rat amylin from membranes with human amylin 3(a) receptor (Assay V)).
T1 construct: whole, on cells; Calcitonin receptor plus RAMP-3 gives the amylin 3(a) receptor; membranes of Amylin 3(a)/CRE-luc cells were used; also called hAmylin-R; hAmylinR
T1 sequence (looked up) 1: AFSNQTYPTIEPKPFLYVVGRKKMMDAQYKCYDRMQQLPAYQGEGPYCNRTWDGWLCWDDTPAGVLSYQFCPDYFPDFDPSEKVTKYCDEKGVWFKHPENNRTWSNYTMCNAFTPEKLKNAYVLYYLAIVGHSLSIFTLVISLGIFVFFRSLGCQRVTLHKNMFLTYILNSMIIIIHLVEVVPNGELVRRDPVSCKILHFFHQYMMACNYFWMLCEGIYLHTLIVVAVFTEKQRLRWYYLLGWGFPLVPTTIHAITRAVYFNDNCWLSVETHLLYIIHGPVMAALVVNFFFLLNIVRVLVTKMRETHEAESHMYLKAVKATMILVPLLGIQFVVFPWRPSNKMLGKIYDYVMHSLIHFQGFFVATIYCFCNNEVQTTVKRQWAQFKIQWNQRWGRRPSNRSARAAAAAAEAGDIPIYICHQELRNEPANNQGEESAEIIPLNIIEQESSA
T1 sequence (looked up) 2: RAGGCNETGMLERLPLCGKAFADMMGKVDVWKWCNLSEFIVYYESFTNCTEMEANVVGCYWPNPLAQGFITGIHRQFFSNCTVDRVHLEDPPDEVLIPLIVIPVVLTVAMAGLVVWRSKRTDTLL
Procedure, shortened: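 Cell membranes were prepared by homogenisation in Na-HEPES/EDTA buffer, pH 7.4, and stored at −80° C. They were then coupled to SPA beads at 35 ng/μL final and exposed to compounds in assay buffer containing CaCl2, MgCl₂, OA and Tween20. After 120 min at 25° C, plates were counted and IC₅₀ derived.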
With B1 the IC50 was 0.232 nM. B2 was tested, and the IC50 was 0.214 nM. B3 was tested, and the IC50 was 0.271 nM. Work on B4 yielded an IC50 of 0.387 nM. B5 was tested, and the IC50 was 0.14 nM. In the case of B6, the IC50 is reported as 0.163 nM. In the case of B7, the IC50 is reported as 0.179 nM.
